Results reported in patent publication EP4480965A1, “TRANSFERRIN RECEPTOR-BINDING MOLECULES, CONJUGATES THEREOF AND THEIR USES TO PREVENT OR TREAT CNS DISEASES” (Vect-Horus, priority 2023, dated 2024).

System: murine SOD1 mRNA
Assay: CNS knock-down of SOD1 mRNA after single ICV administration (RT-qPCR)
Format: in vivo, C57Bl/6 mice
Conditions: seven days
Description: VHH-siSOD 1m conjugates were assessed for their potential to mediate murine SOD1 mRNA knock-down in the brain and spinal cord following intracerebroventicular (ICV) administration in wild-type C57Bl/6 mice. Wild-type C57Bl/6 mice (4 per group) were injected a single ICV dose (right lateral ventricle, 5-10 µL at 0.75 µL/min) of 100 µg (siRNA molar equivalent) of PBS vehicle (control), unconjugated siSOD1m-5'VP or the indicated VHH-siSOD1m-5'VP conjugates. Seven days after injection, tissue samples including total brain (right hemisphere), brain regions (from the left hemisphere), spinal cord and the liver were withdrawn, snap-frozen in 10 vol. ofNucleoProtect RNA stabilization reagent (Macherey-Nagel) and stored at -20°C. Frozen tissue samples were homogenized in QUIAzol lysis reagent using a Precellys Evolution tissue homogenizer equipped with a Cryolys Evolution cooling system (Bertin Instruments). Total RNA was extracted from tissue homogenates using the rNeasy 96 QIAcube HT Kit (QIAGEN) in a QIAcube HT system. RNA samples were analyzed and dosed using a Fragment Analyzer RNA kit in a Fragment Analyzer system (Agilent). Relative RNA expression levels were quantified by RT-qPCR using the TaqMan™ Fast Universal PCR Master Mix (2X) no AmpErase™ UNG kit (Applied Biosystems) and commercially available TaqMan™ probes for murine SOD1 and RpL13 genes (Applied Biosystems). Expression data were analyzed using the ΔΔCq method normalized to the expression of the reference RpL13 gene, based on raw quantification cycle (Cq) values (Bustin et al.). The results are expressed as means ± standard error of the mean (SEM) and are presented as mRNA levels relative to the control animals injected with PBS.
Biodistribution of VHH-siRNA conjugates and CNS knock-down of the target SOD1 mRNAVHH-siSODlm conjugates were evaluated using in situ hybridization methods (ISH) on brain and spinal cord samples following single ICV administration in wild-type mice. […]

B1: C5-siSOD1m-5'VP: TfR-binding VHH-siRNA conjugate wherein VHH is C5 (conjugate)
VHH: EVQLVESGGGVVQPGGSLKLSCVASGTDFSINFIRWYRQAPGKQREFVAGFTATGNTNYADSMKGRFTISRDNTKNAVYLQIDSLKPEDTAVYYCYMLDKWGQGTQVTVSSAAAEQKLISEEDLNGAAHHHHHHGS
- SOD1 mRNA knock-down (KD) in brain and spinal cord (single ICV dose 100 µg (siRNA molar equivalent)): 80-90%
- SOD1 mRNA KD in brain regions of the left hemisphere (single ICV dose 100 µg): 60-90%
- downregulation of SOD1 mRNA in all regions tested of the brain ipsilateral (right) hemisphere (single ICV dose 100 µg): 70-90%
